Experimental data taken from the Immune Epitope Database (IEDB).
Each block holds one sequence with its values, some of them ahead of it.

How the values were obtained:
HLA-B*35:01 = test: IEDB peptide-MHC binding, purified MHC/competitive/radioactivity; filed as Kd, often an IC50 or EC50 that approximates it; ≥ and ≤ were set here for values at or beyond the usual limits of such assays
HLA-B*57:01 = test: as above
HLA-B*51:01 [1] = test: IEDB peptide-MHC binding, purified MHC/competitive/fluorescence; filed as Kd, often an IC50 or EC50 that approximates it; ≥ and ≤ were set here for values at or beyond the usual limits of such assays; settings: source organism: Escherichia coli K-12
HLA-A*01:01 = test: IEDB peptide-MHC binding, purified MHC/direct/fluorescence; filed as Kd, often an IC50 or EC50 that approximates it; ≥ and ≤ were set here for values at or beyond the usual limits of such assays
HLA-A*02:01 [2] = test: as above
HLA-A*03:01 = test: as above
HLA-A*11:01 [3] = test: as above
HLA-A*24:03 = test: as above; settings: source organism: Toxoplasma gondii
HLA-A*26:01 = test: as above
HLA-A*69:01 = test: as above
HLA-B*07:02 [4] = test: as above
HLA-B*08:01 = test: as above
HLA-B*15:01 [5] = test: as above
HLA-B*27:05 = test: as above
HLA-B*40:01 = test: as above
HLA-B*44:02 = test: as above
HLA-B*58:01 = test: as above
HLA-A*24:02 = test: IEDB peptide-MHC binding, purified MHC/competitive/fluorescence; ≥ and ≤ were set here for values at or beyond the usual limits of such assays
HLA-A*11:01 [6] = test: as above
HLA-A*02:01 [7] = test: as above; settings: source organism: Zaire ebolavirus
HLA-B*07:02 [8] = test: IEDB peptide-MHC binding, purified MHC/competitive/radioactivity; filed as Kd, often an IC50 or EC50 that approximates it; ≥ and ≤ were set here for values at or beyond the usual limits of such assays
HLA-B*51:01 [9] = test: as above
HLA-B*53:01 = test: as above
HLA-A*02:01 [10] = test: IEDB peptide-MHC binding, purified MHC/competitive/fluorescence; filed as Kd, often an IC50 or EC50 that approximates it; ≥ and ≤ were set here for values at or beyond the usual limits of such assays; settings: source organism: Yersinia bercovieri ATCC 43970
HLA-B*15:01 [11] = test: as above; settings: source organism: Yersinia bercovieri ATCC 43970
HLA-B*39:01 = test: as above; settings: source organism: Yersinia bercovieri ATCC 43970
HLA-A*31:01 = test: IEDB peptide-MHC binding, purified MHC/direct/fluorescence; filed as Kd, often an IC50 or EC50 that approximates it; ≥ and ≤ were set here for values at or beyond the usual limits of such assays; settings: source organism: Vibrio parahaemolyticus
[12] = source organism: Dengue virus 3 Martinique/1243/1999
[13] = source organism: Dengue virus 4 Philippines/H241/1956
[14] = source organism: Toxoplasma gondii
[15] = source organism: Zaire ebolavirus
[16] = source organism: Vaccinia virus WR
[17] = source organism: Sudan ebolavirus
[18] = source organism: Dengue virus 1 Brazil/97-11/1997
[19] = source organism: Dengue virus 4 Dominica/814669/1981
[20] = source organism: Vibrio parahaemolyticus
[21] = source organism: Dengue virus 1 Singapore/S275/1990

Sequence: GPGHEEPVPM
- Kd (HLA-B*35:01; [12]): 7.2 µM

Sequence: GSRAIWYMW
- Kd (HLA-B*57:01; [13]): 0.00172 µM

- Kd (HLA-B*51:01 [1]): 0.281 µM
Sequence: YPYSDDLTI

Sequence: AYMDRKSFK
- Kd (HLA-A*01:01; [14]): ≥ 20 µM
- Kd (HLA-A*02:01 [2]; [14]): ≥ 20 µM
- Kd (HLA-A*03:01; [14]): 14.7 µM
- Kd (HLA-A*11:01 [3]; [14]): ≥ 5 µM
- Kd (HLA-A*24:03): 2.43 µM
- Kd (HLA-A*26:01; [14]): ≥ 20 µM
- Kd (HLA-A*69:01; [14]): ≥ 20 µM
- Kd (HLA-B*07:02 [4]; [14]): ≥ 20 µM
- Kd (HLA-B*08:01; [14]): ≥ 20 µM
- Kd (HLA-B*15:01 [5]; [14]): ≥ 20 µM
- Kd (HLA-B*27:05; [14]): ≥ 20 µM
- Kd (HLA-B*40:01; [14]): ≥ 20 µM
- Kd (HLA-B*44:02; [14]): ≥ 20 µM
- Kd (HLA-B*58:01; [14]): ≥ 20 µM

Sequence: ICGLRQLAN
- IC50 (HLA-A*24:02; [15]): 16.2 µM

Sequence: VPFIRNPNK
- IC50 (HLA-A*11:01 [6]; [16]): 47.2 µM

Sequence: SFQQTNAMV
- IC50 (HLA-A*02:01 [7]): 31.7 µM
- IC50 (HLA-A*24:02; [15]): 18.1 µM

Sequence: RWGGTCRIL
- IC50 (HLA-A*24:02; [17]): 0.23 µM

Sequence: SETAGNNNT
- IC50 (HLA-A*02:01 [7]): ≥ 98.4 µM
- IC50 (HLA-A*11:01 [6]; [15]): ≥ 363 µM

Sequence: VLKPSVIEE
- IC50 (HLA-A*11:01 [6]; [16]): ≥ 257 µM

Sequence: TPRSPSVEV
- Kd (HLA-B*07:02 [8]; [13]): 0.00258 µM
- Kd (HLA-B*51:01 [9]; [13]): 0.538 µM

Sequence: MPSVVETLEQ
- Kd (HLA-B*35:01; [18]): 6.11 µM
- Kd (HLA-B*53:01; [18]): 1.2 µM

Sequence: TPRGAVMDII
- Kd (HLA-B*07:02 [8]; [19]): 0.00805 µM
- Kd (HLA-B*51:01 [9]; [19]): 1.35 µM

Sequence: CPGDYAFHK
- IC50 (HLA-A*11:01 [6]; [17]): 55.3 µM

Sequence: WQMFMKVTV
- Kd (HLA-A*02:01 [10]): 0.0156 µM
- Kd (HLA-B*15:01 [11]): 1.29 µM
- Kd (HLA-B*39:01): 0.389 µM

Sequence: ATRLENIMW
- Kd (HLA-B*57:01; [18]): 0.00231 µM

Sequence: EEDLPVTWR
- Kd (HLA-A*01:01; [20]): ≥ 20 µM
- Kd (HLA-A*02:01 [2]; [20]): ≥ 20 µM
- Kd (HLA-A*03:01; [20]): ≥ 20 µM
- Kd (HLA-A*11:01 [3]; [20]): ≥ 20 µM
- Kd (HLA-A*26:01; [20]): ≥ 20 µM
- Kd (HLA-A*31:01): ≥ 20 µM
- Kd (HLA-A*69:01; [20]): ≥ 20 µM
- Kd (HLA-B*07:02 [4]; [20]): ≥ 20 µM
- Kd (HLA-B*08:01; [20]): ≥ 20 µM
- Kd (HLA-B*15:01 [5]; [20]): ≥ 20 µM
- Kd (HLA-B*27:05; [20]): ≥ 20 µM
- Kd (HLA-B*40:01; [20]): ≥ 20 µM
- Kd (HLA-B*44:02; [20]): ≥ 20 µM
- Kd (HLA-B*58:01; [20]): ≥ 20 µM

Sequence: EPWLKNNQF
- Kd (HLA-B*35:01; [12]): 1.03 µM
- Kd (HLA-B*53:01; [12]): 2.58 µM

Sequence: GTSITQKGII
- Kd (HLA-B*57:01; [18]): 9.33 µM

Sequence: DNTQSEHSF
- IC50 (HLA-A*24:02; [15]): 49.7 µM

Sequence: SNTTGKLIW
- IC50 (HLA-A*24:02; [15]): 9.97 µM

Sequence: LPVWLAHKVA
- Kd (HLA-B*35:01; [12]): 6.68 µM

Sequence: SPAATQKAAL
- Kd (HLA-B*07:02 [8]; source organism: Dengue virus 4 Singapore/8976/1995): 0.00366 µM

Sequence: SPKRLATAIA
- Kd (HLA-B*07:02 [8]; [12]): 0.0341 µM

Sequence: IPKIYGGPI
- Kd (HLA-B*07:02 [8]; [21]): 0.0142 µM
- Kd (HLA-B*51:01 [9]; [21]): 0.63 µM

Sequence: WTSGASTSQE
- Kd (HLA-B*57:01; [18]): 0.206 µM
